The values that follow come from US6485937.

The experiment deals with FLAG-epitope tagged HIV tat interacting protein of 30 kDa (f-TIP30) (human (isolated from HeLa cells)) (UniProt Q9BUP3). As to the kind of experiment: affinity chromatography of B. mori fat bodies extract, SDS-PAGE of the unbound fraction; the filing puts this down to saturated beads.
Chain of UniProt Q9BUP3 (Q9BUP3 other isoform, or with tags, fused parts or gaps limits assumed): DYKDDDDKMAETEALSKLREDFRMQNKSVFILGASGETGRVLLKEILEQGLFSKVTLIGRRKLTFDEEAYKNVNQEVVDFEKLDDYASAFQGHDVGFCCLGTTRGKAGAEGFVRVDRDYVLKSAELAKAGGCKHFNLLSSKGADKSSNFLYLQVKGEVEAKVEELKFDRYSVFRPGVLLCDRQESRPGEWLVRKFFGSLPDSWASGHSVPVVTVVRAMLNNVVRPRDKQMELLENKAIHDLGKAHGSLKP

In the case of M2-Agarose resin (Sigma) (antibody), the share of expressed protein remaining in the unbound fraction is over 30%.
